Measured values: the Human Domainome abundance scans (Beltran et al. 2025)
± gives the uncertainty stated by the source.

B1: Far upstream element-binding protein 2, residues 142 to 214; numbered along this chain, Q92945 (parent)
chain: RTSMTEEYRVPDGMVGLIIGRGGEQINKIQQDSGCKVQISPDSGGLPERSVSLTGAPESVQKAKMMLDDIVSR

Variants of: B1
Experiment: abundance fitness (aPCA) (normalised: wild type 0, dead -1); higher = more abundant; growth selection in yeast, the domain comes from the species named
Details: Homo sapiens

Compared with RTSMTEEYRVPDGMVGLIIGRGGEQINKIQQDSGCKVQISPDSGGLPERSVSLTGAPESVAKAKMMLDDIVSR [Q61A], RTSMTEEYRVPDGMVGLIIGRGGEQINKIQQDSGCKVQISPDSGGLPERSVSLTGAPESVCKAKMMLDDIVSR [Q61C] is lower in abundance fitness: 0.015 ± 0.048 for the first, -0.164 ± 0.071 for the second.

Going from RTSMTEEYRVPDGMVGLIIGRGGEQINKIQQDSGCKVQISPDSGGLPERSVSLTGAPESVDKAKMMLDDIVSR [Q61D] to RTSMTEEYRVPDGMVGLIIGRGGEQINKIQQDSGCKVQISPDSGGLPERSVSLTGAPESVEKAKMMLDDIVSR [Q61E], the abundance fitness rises from -0.168 ± 0.076 to 0.01 ± 0.06.

RTSMTEEYRVPDGMVGLIIGRGGEQINKIQQDSGCKVQISPDSGGLPERSVSLTGAPESVFKAKMMLDDIVSR [Q61F] and RTSMTEEYRVPDGMVGLIIGRGGEQINKIQQDSGCKVQISPDSGGLPERSVSLTGAPESVGKAKMMLDDIVSR [Q61G] are within error of each other in abundance fitness: -0.106 ± 0.074 for the first, -0.053 ± 0.044 for the second.

RTSMTEEYRVPDGMVGLIIGRGGEQINKIQQDSGCKVQISPDSGGLPERSVSLTGAPESVHKAKMMLDDIVSR [Q61H] and RTSMTEEYRVPDGMVGLIIGRGGEQINKIQQDSGCKVQISPDSGGLPERSVSLTGAPESVIKAKMMLDDIVSR [Q61I] are within error of each other in abundance fitness: -0.196 ± 0.11 for the first, -0.064 ± 0.095 for the second.

First: RTSMTEEYRVPDGMVGLIIGRGGEQINKIQQDSGCKVQISPDSGGLPERSVSLTGAPESVKKAKMMLDDIVSR [Q61K]
Second: RTSMTEEYRVPDGMVGLIIGRGGEQINKIQQDSGCKVQISPDSGGLPERSVSLTGAPESVLKAKMMLDDIVSR [Q61L]
The abundance fitness of the first is higher: 0.045 ± 0.062 for the first, -0.109 ± 0.05 for the second.

RTSMTEEYRVPDGMVGLIIGRGGEQINKIQQDSGCKVQISPDSGGLPERSVSLTGAPESVMKAKMMLDDIVSR [Q61M] and RTSMTEEYRVPDGMVGLIIGRGGEQINKIQQDSGCKVQISPDSGGLPERSVSLTGAPESVNKAKMMLDDIVSR [Q61N] are within error of each other in abundance fitness: -0.051 ± 0.064 for the first, 0.016 ± 0.12 for the second.

Compared with RTSMTEEYRVPDGMVGLIIGRGGEQINKIQQDSGCKVQISPDSGGLPERSVSLTGAPESVPKAKMMLDDIVSR [Q61P], RTSMTEEYRVPDGMVGLIIGRGGEQINKIQQDSGCKVQISPDSGGLPERSVSLTGAPESVRKAKMMLDDIVSR [Q61R] is higher in abundance fitness: -0.618 ± 0.062 for the first, 0.013 ± 0.04 for the second.

RTSMTEEYRVPDGMVGLIIGRGGEQINKIQQDSGCKVQISPDSGGLPERSVSLTGAPESVSKAKMMLDDIVSR [Q61S] and RTSMTEEYRVPDGMVGLIIGRGGEQINKIQQDSGCKVQISPDSGGLPERSVSLTGAPESVTKAKMMLDDIVSR [Q61T] are within error of each other in abundance fitness: -0.06 ± 0.051 for the first, -0.018 ± 0.053 for the second.

RTSMTEEYRVPDGMVGLIIGRGGEQINKIQQDSGCKVQISPDSGGLPERSVSLTGAPESVVKAKMMLDDIVSR [Q61V] and RTSMTEEYRVPDGMVGLIIGRGGEQINKIQQDSGCKVQISPDSGGLPERSVSLTGAPESVWKAKMMLDDIVSR [Q61W] are within error of each other in abundance fitness: -0.102 ± 0.049 for the first, -0.176 ± 0.058 for the second.

Going from RTSMTEEYRVPDGMVGLIIGRGGEQINKIQQDSGCKVQISPDSGGLPERSVSLTGAPESVQAAKMMLDDIVSR [K62A] to RTSMTEEYRVPDGMVGLIIGRGGEQINKIQQDSGCKVQISPDSGGLPERSVSLTGAPESVQCAKMMLDDIVSR [K62C], the abundance fitness falls from -0.173 ± 0.044 to -0.288 ± 0.062.

Compared with RTSMTEEYRVPDGMVGLIIGRGGEQINKIQQDSGCKVQISPDSGGLPERSVSLTGAPESVQDAKMMLDDIVSR [K62D], RTSMTEEYRVPDGMVGLIIGRGGEQINKIQQDSGCKVQISPDSGGLPERSVSLTGAPESVQEAKMMLDDIVSR [K62E] is higher in abundance fitness: -0.663 ± 0.076 for the first, -0.286 ± 0.057 for the second.

RTSMTEEYRVPDGMVGLIIGRGGEQINKIQQDSGCKVQISPDSGGLPERSVSLTGAPESVQFAKMMLDDIVSR [K62F] and RTSMTEEYRVPDGMVGLIIGRGGEQINKIQQDSGCKVQISPDSGGLPERSVSLTGAPESVQGAKMMLDDIVSR [K62G] are within error of each other in abundance fitness: -0.625 ± 0.098 for the first, -0.51 ± 0.043 for the second.

RTSMTEEYRVPDGMVGLIIGRGGEQINKIQQDSGCKVQISPDSGGLPERSVSLTGAPESVQHAKMMLDDIVSR [K62H] and RTSMTEEYRVPDGMVGLIIGRGGEQINKIQQDSGCKVQISPDSGGLPERSVSLTGAPESVQIAKMMLDDIVSR [K62I] are within error of each other in abundance fitness: -0.231 ± 0.07 for the first, -0.126 ± 0.085 for the second.

Compared with RTSMTEEYRVPDGMVGLIIGRGGEQINKIQQDSGCKVQISPDSGGLPERSVSLTGAPESVQLAKMMLDDIVSR [K62L], RTSMTEEYRVPDGMVGLIIGRGGEQINKIQQDSGCKVQISPDSGGLPERSVSLTGAPESVQMAKMMLDDIVSR [K62M] is higher in abundance fitness: -0.169 ± 0.043 for the first, -0.068 ± 0.057 for the second.

First: RTSMTEEYRVPDGMVGLIIGRGGEQINKIQQDSGCKVQISPDSGGLPERSVSLTGAPESVQNAKMMLDDIVSR [K62N]
Second: RTSMTEEYRVPDGMVGLIIGRGGEQINKIQQDSGCKVQISPDSGGLPERSVSLTGAPESVQQAKMMLDDIVSR [K62Q]
The abundance fitness of the first is lower: -0.449 ± 0.094 for the first, -0.048 ± 0.052 for the second.

RTSMTEEYRVPDGMVGLIIGRGGEQINKIQQDSGCKVQISPDSGGLPERSVSLTGAPESVQSAKMMLDDIVSR [K62S] and RTSMTEEYRVPDGMVGLIIGRGGEQINKIQQDSGCKVQISPDSGGLPERSVSLTGAPESVQTAKMMLDDIVSR [K62T] are within error of each other in abundance fitness: -0.194 ± 0.042 for the first, -0.204 ± 0.05 for the second.

Going from RTSMTEEYRVPDGMVGLIIGRGGEQINKIQQDSGCKVQISPDSGGLPERSVSLTGAPESVQVAKMMLDDIVSR [K62V] to RTSMTEEYRVPDGMVGLIIGRGGEQINKIQQDSGCKVQISPDSGGLPERSVSLTGAPESVQWAKMMLDDIVSR [K62W], the abundance fitness falls from -0.127 ± 0.046 to -0.541 ± 0.053.

RTSMTEEYRVPDGMVGLIIGRGGEQINKIQQDSGCKVQISPDSGGLPERSVSLTGAPESVQYAKMMLDDIVSR [K62Y] and RTSMTEEYRVPDGMVGLIIGRGGEQINKIQQDSGCKVQISPDSGGLPERSVSLTGAPESVQKCKMMLDDIVSR [A63C] are within error of each other in abundance fitness: -0.278 ± 0.098 for the first, -0.222 ± 0.082 for the second.

Compared with RTSMTEEYRVPDGMVGLIIGRGGEQINKIQQDSGCKVQISPDSGGLPERSVSLTGAPESVQKDKMMLDDIVSR [A63D], RTSMTEEYRVPDGMVGLIIGRGGEQINKIQQDSGCKVQISPDSGGLPERSVSLTGAPESVQKGKMMLDDIVSR [A63G] is higher in abundance fitness: -0.666 ± 0.14 for the first, -0.447 ± 0.044 for the second.
